Measured values: the supplement of paper PMC11908140

B1: library; numbered along this chain (parent)
chain: MRKPRAAVGSGHRKQAASQEGRQKHAKNNSQAKPSACDGLARQPEEVVLQASVSSYHLFRDVAEVTAFRGSLLSWYDQEKRDLPWRRRAEDEMDLDRRAYAVWVSEVMLQQTQVATVINYYTGWMQKWPTLQDLASASLEEVNQLWAGLGYYSRGRRLQEGARKVVEELGGHMPRTAETLQQLLPGVGRYTAGAIASIAFGQATGVVDGNVARVLCRVRAIGADPSSTLVSQQLWGLAQQLVDPARPGDFNQAAMELGATVCTPQRPLCSQCPVESLCRARQRVEQEQLLASGSLSGSPDVEECAPNTGQCHLCLPPSEPWDQTLGVVNFPRKASRKPPREESSATCVLEQPGALGAQILLVQRPNSGLLAGLWEFPSVTWEPSEQLQRKALLQELQRWAGPLPATHLRHLGEVVHTFSHIKLTYQVYGLALEGQTPVTTVPPGARWLTQEEFHTAAVSTAMKKVFRVYQGQQPGTCMGSKRSQVSSPCSRKKPRMGQQVLDNFFRSHISTDAHSLNSAAQ

Variants of: B1
Experiment: 8OG:A repair function score (normalized; synonymous = 0, nonsense = -1) (normalized log-likelihood score); higher = more repair activity (WT-like)
Conditions: with 8OG:A DNA repair reporter (GFP) in HEK-293 MUTYH KO cells
In short: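 After 72 h, viable mCherry+ cells were split into GFP+ (repair) and GFP− bins in three replicates per tile. These cells were MUTYH knockout HEK-293 cells holding lentiviral MUTYH cDNA NNN codon-scan libraries, kept in 10 pg/ml doxycycline and co-transfected with mCherry plus an 8OG:A GFP repair reporter. Sequencing of tile amplicons gave per-tile Rosace fitness scores, normalized into a repair function score anchored on synonymous and nonsense distributions. Synonymous medians were fixed at 0, nonsense at -1, and variants under 300 counts per million at the start were removed.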
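Further: cells sorted at 72 h after reporter transfection.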

Variant	8OG:A repair function score
Y100T	-1.56
K463R	-0.0765
Y190T	-0.419
T66G	-0.0192
P377W	-1.42
P377S	-0.809
G188T	-1.03
Y76N	-1.1
Y76E	-1.5
D322L	-0.0483
Q240E	-0.919
T417A	0.198
V441D	-0.144
T346Q	-0.787
Y121C	-1.17
K481R	0.0229
S74F	-0.0182
S74N	-0.0112
L403P	-0.0649
G209S	0.0281
L131K	-0.394
G193E	-0.722
E382G	-0.0795
Q282F	-0.021

Variant	8OG:A repair function score
Q282I	-0.0327
Q282H	-0.0165
G258R	-1.2
G258W	-1.49
S510G	-0.0202
A354C	-0.078
G479N	-0.00734
G479F	-0.00391
Q435D	0.0234
A162E	-1.14
R175P	-0.229
P174D	-0.922
P174R	-0.877
S270L	-0.0471
Q111N	-0.242
Q111R	-0.248
L408Y	-0.205
Q473H	0.0203
Q473T	-0.00244
S318R	-0.0645
S318E	0.0139
G497T	-0.00191
Y428T	-1.1
Y425M	0.236

Variant	8OG:A repair function score
Y425V	0.00816
Y425T	-0.255
P404I	0.118
Q252V	-0.798
V274T	-0.241
G401V	-0.142
T440Q	-0.0653
Q182C	-0.0792
L411E	-0.473
G222F	-0.564
V214N	-0.833
I509R	-0.0323
S197L	-1.13
C304V	-0.331
K80D	-1.37
K80H	0.00371
V207D	-0.986
V207Q	-0.868
S227W	-0.244
S227Y	-0.307
A147H	-0.241
Y120I	-0.425
R154K	-0.609
V104T	-0.472

Variant	8OG:A repair function score
A456G	-0.246
L289G	-0.00218
L289F	-0.00169
E140V	-0.181
V53F	-0.00754
Q110P	-0.29
E395M	-0.253
V211S	-0.531
V211N	-0.806
N503M	-9.05e-05
G248S	-0.709
D77Q	-0.0294
A101R	-0.0207
A101D	-0.0136
L387T	0.0729
L387G	-0.154
L448K	-0.743
A192H	-0.926
S298E	-0.0588
S298L	0.0173
R81W	-0.422
W128Q	-0.844
T308P	-0.0519
E319H	-0.0143

Variant	8OG:A repair function score
E319S	0.0138
E319Q	0.0567
T460E	-0.212
W374M	0.217
P488L	0.00539
P488Y	-0.0629
K337V	-0.116
A220S	-0.411
A405P	0.125
V102G	-1.36
V102W	-1.13
A115I	-0.0495
I421K	-0.173
S136A	0.0607
P474L	0.0136
S378Y	-0.26
K333W	-0.0431
K333L	-0.227
C262R	-1.05
Q484G	0.00288
Y56F	0.0047
N366W	-0.042
N366A	0.0425
K127M	-0.286

Variant	8OG:A repair function score
K127D	-1.32
Q113R	0.032
Q113A	-0.108
E285K	-0.0741
S344N	0.0332
W146C	-0.255
L268Y	-0.046
S55F	-0.000223
V485R	0.0173
R364V	-0.616
A89H	0.00693
A89L	0.00692
A203G	-0.165
A212E	0.196
D224E	-0.936
Y469S	-0.115
L83D	-1.02
L83Y	-0.478
E375P	-0.897
L40N	0.042
T116G	-0.179
A194D	-1.03
N143H	-0.621
N143L	-0.0917

Variant	8OG:A repair function score
N143M	0.113
P320S	-0.0238
V414Y	-0.314
L516W	-0.0603
L295T	-0.00105
C269Y	-1.12
C269P	-1.04
R266W	-0.135
S153N	-0.152
C347E	-1.34
C347S	-0.457
G471W	-0.0505
M255H	-1.03
T204S	-0.127
V142N	-1.86
V142D	-1.15
C216D	-0.949
V301K	-0.283
V327K	-0.459
R332A	-0.0476
R332K	-0.206
G186I	-1.23
Q144P	-0.282
